The target in the assay is HLA-A*11:01 monomer (commercial, biotinylated, preloaded with a UV-sensitive peptide that is destroyed by UV) (human). Description: ELISA; UV-mediated peptide exchange: 25 μM peptide in PBS mixed 1:1 with […] biotinylated UV-sensitive HLA-A*11:01 monomer on ice, 366 nm UV 30 min; stable monomers captured on streptavidin plates and detected with HRP anti-human β2-microglobulin; result as percentage of positive signal against positive and negative control peptides. A general note: In an ELISA, binding on a coated surface is turned into a signal by an enzyme label.

With VVGAGGVGK [KRAS_(8–16)^WT peptide], the percentage of positive signal is 46.6%.

The record behind these values is PMC11058820.
